Results on one molecule are retold here after patent CN111138531A (INST MILITARY MEDICINE ACADEMY MILITARY SCIENCES PLA, dated 2020).

This test has as its target GPdM (EBOV, UniProt Q05320 33-632). Kind of test: ELISA on coated truncated GP, method as example 2.

B1: 单克隆抗体8F9 (antibody, V domains shown)
VH: EVQLLESGGGLVQPGGSLRLSCAASEFTFSNYAMNWVRQAPGKGLEWVSGISTRGSSTYYADSVKGRFTISRDNSKNTLYLQMNSLRVEDTAVYYCAKDRLSVFGVVLISSDYYGMDVWGQGTTVTVSS
VL: AIRMTQSPFSLSASVGDRVTITCRASRTISSYLNWYQKKPGKAPKLLIYAASSLQSGVPSRFSGSGSGTDFTLTISSLQPEDFATYYCQQSYSTPMTFGQGTRLEIKT
With B1, the EC50 came to 6.2 ng/mL.
